These results are taken from PMC7144274.

The experiment has as its target soluble MERTK ectodomain (MERTK^ED-His). As to the kind of experiment: SPR; Biacore T200, room temperature; […]; HBS-EP (10 mM HEPES pH 7.4, 150 mM NaCl, 0.05% Tween 20).

“CSFV E2 ectodomain (E2^ED-His) (domain or fragment)” displayed a Kd of 1630 nM.
